According to the supplement of paper PMC11246515:
± gives the standard deviation of the averaged measurements.

Test: total protein half-life in vivo (active degradation + dilution); higher = more stable protein
[1] = E. coli NCM3722 delta-clpP, growth: N-lim chemostat, doubling time 6 h
[2] = E. coli NCM3722 delta-hslV, growth: N-lim chemostat, doubling time 6 h
[3] = E. coli NCM3722 delta-smpB, growth: N-lim chemostat, doubling time 6 h
[4] = wild type E. coli NCM3722, growth: C-lim chemostat, doubling time 3 h
[5] = wild type E. coli NCM3722, growth: C-lim chemostat, doubling time 6 h
[6] = wild type E. coli NCM3722, growth: C-lim chemostat, doubling time 12 h
[7] = wild type E. coli NCM3722, growth: N-lim chemostat, doubling time 12 h
[8] = wild type E. coli NCM3722, growth: P-lim chemostat, doubling time 6 h
[9] = wild type E. coli NCM3722, growth: P-lim chemostat, doubling time 12 h
[10] = E. coli NCM3722 delta-clpP delta-lon delta-hslV, growth: N-lim chemostat, doubling time 6 h
[11] = E. coli NCM3722 delta-lon, growth: N-lim chemostat, doubling time 6 h
[12] = wild type E. coli NCM3722, growth: N-lim chemostat, doubling time 6 h

Sequence | total protein half-life in vivo [1] | total protein half-life in vivo [2] | total protein half-life in vivo [3] | total protein half-life in vivo [4] | total protein half-life in vivo [5] | total protein half-life in vivo [6] | total protein half-life in vivo [7] | total protein half-life in vivo [8] | total protein half-life in vivo [9] | total protein half-life in vivo [10] | total protein half-life in vivo [11] | total protein half-life in vivo [12]
MASISSLGVGSGLDLSSILDSLTAAQKATLTPISNQQSSFTAKLSAYGTLKSALTTFQTANTALSKADLFSATSTTSSTTAFSATTAGNAIAGKYTISVTHLAQAQTLTTRTTRDDTKTAIATSDSKLTIQQGGDKDPITIDISAANSSLSGIRDAINNAKAGVSASIINVGNGEYRLSVTSNDTGLDNAMTLSVSGDDALQSFMGYDASASSNGMEVSVAAQNAQLTVNNVAIENSSNTISDALENITLNLNDVTTGNQTLTITQDTSKAQTAIKDWVNAYNSLIDTFSSLTKYTAVDAGADSQSSSNGALLGDSTLRTIQTQLKSMLSNTVSSSSYKTLAQIGITTDPSDGKLELDADKLTAALKKDASGVGALIVGDGKKTGITTTIGSNLTSWLSTTGIIKAATDGVSKTLNKLTKDYNAASDRIDAQVARYKEQFTQLDVLMTSLNSTSSYLTQQFENNSNSK | > 8 h | > 8 h | > 8 h | 1.4 ± 0.12 h | 0.627 ± 0.1 h | 0.906 ± 0.44 h | > 16 h | > 8 h | > 16 h | – | – | –
MASSGTTSTRKRFTGAEFIVHFLEQQGIKIVTGIPGGSILPVYDALSQSTQIRHILARHEQGAGFIAQGMARTDGKPAVCMACSGPGATNLVTAIADARLDSIPLICITGQVPASMIGTDAFQEVDTYGISIPITKHNYLVRHIEELPQVMSDAFRIAQSGRPGPVWIDIPKDVQTAVFEIETQPAMAEKAAAPAFSEESIRDAAAMINAAKRPVLYLGGGVINAPARVRELAEKAQLPTTMTLMALGMLPKAHPLSLGMLGMHGVRSTNYILQEADLLIVLGARFDDRAIGKTEQFCPNAKIIHVDIDRAELGKIKQPHVAIQADVDDVLAQLIPLVEAQPRAEWHQLVADLQREFPCPIPKACDPLSHYGLINAVAACVDDNAIITTDVGQHQMWTAQAYPLNRPRQWLTSGGLGTMGFGLPAAIGAALANPDRKVLCFSGDGSLMMNIQEMATASENQLDVKIILMNNEALGLVHQQQSLFYEQGVFAATYPGKINFMQIAAGFGLETCDLNNEADPQASLQEIINRPGPALIHVRIDAEEKVYPMVPPGAANTEMVGE | 1.25 ± 0.025 h | 1.28 ± 0.21 h | 1.43 ± 0.086 h | 2.4 ± 0.39 h | 2.86 ± 0.38 h | 4.64 ± 1.5 h | 2.49 h | 4.5 h | 8.65 ± 1.8 h | 2.91 ± 0.088 h | 1.6 ± 0.46 h | 1.4 ± 0.11 h
MASSNLIKQLQERGLVAQVTDEEALAERLAQGPIALYCGFDPTADSLHLGHLVPLLCLKRFQQAGHKPVALVGGATGLIGDPSFKAAERKLNTEETVQEWVDKIRKQVAPFLDFDCGENSAIAANNYDWFGNMNVLTFLRDIGKHFSVNQMINKEAVKQRLNREDQGISFTEFSYNLLQGYDFACLNKQYGVVLQIGGSDQWGNITSGIDLTRRLHQNQVFGLTVPLITKADGTKFGKTEGGAVWLDPKKTSPYKFYQFWINTADADVYRFLKFFTFMSIEEINALEEEDKNSGKAPRAQYVLAEQVTRLVHGEEGLQAAKRITECLFSGSLSALSEADFEQLAQDGVPMVEMEKGADLMQALVDSELQPSRGQARKTIASNAITINGEKQSDPEYFFKEEDRLFGRFTLLRRGKKNYCLICWK [P0AGJ9] | 5.55 ± 0.44 h | 5.61 ± 0.41 h | 5.58 ± 0.69 h | 3.11 ± 0.094 h | 6.32 ± 0.36 h | – | 10.5 ± 0.76 h | 6.271 ± 0.031 h | 12.2 ± 0.76 h | 5.31 ± 0.33 h | 5.87 ± 0.23 h | 5.51 ± 0.065 h
MATAWYKQVNPPQRKALFSAWLGYVFDGFDFMMIFYILHIIKADLGITDIQATLIGTVAFIARPIGGGFFGAMADKYGRKPMMMWAIFIYSVGTGLSGIATNLYMLAVCRFIVGLGMSGEYACASTYAVESWPKNLQSKASAFLVSGFSVGNIIAAQIIPQFAEVYGWRNSFFIGLLPVLLVLWIRKSAPESQEWIEDKYKDKSTFLSVFRKPHLSISMIVFLVCFCLFGANWPINGLLPSYLADNGVNTVVISTLMTIAGLGTLTGTIFFGFVGDKIGVKKAFVVGLITSFIFLCPLFFISVKNSSLIGLCLFGLMFTNLGIAGLVPKFIYDYFPTKLRGLGTGLIYNLGATGGMAAPVLATYISGYYGLGVSLFIVTVAFSALLILLVGFDIPGKIYKLSVAK | – | – | – | 3.16 h | > 8 h | 9.57 h | – | 5.55 h | 9.48 ± 2.4 h | – | – | –
MATDSTQCVKKSRGRPKVFDRDAALDKAMKLFWQHGYEATSLADLVEATGAKAPTLYAEFTNKEGLFRAVLDRYIDRFAAKHEAQLFCEEKSVESALADYFAAIANCFTSKDTPAGCFMINNCTTLSPDSGDIANTLKSRHAMQERTLQQFLCQRQARGEIPPHCDVTHLAEFLNCIIQGMSISAREGASLEKLMQIAGTTLRLWPELVK | 3.65 ± 0.34 h | 1.46 ± 0.015 h | 1.57 ± 0.097 h | 1.69 ± 0.081 h | 2.99 ± 0.34 h | 4.6 ± 0.59 h | 2.32 ± 0.54 h | 2.49 ± 0.15 h | 3.73 ± 1.1 h | 5.38 ± 0.14 h | 2.04 ± 0.17 h | 1.78 ± 0.021 h
MATDTLTHATAHAHEHGHHDAGGTKIFGFWIYLMSDCILFSILFATYAVLVNGTAGGPTGKDIFELPFVLVETFLLLFSSITYGMAAIAMYKNNKSQVISWLALTWLFGAGFIGMEIYEFHHLIVNGMGPDRSGFLSAFFALVGTHGLHVTSGLIWMAVLMVQIARRGLTSTNRTRIMCLSLFWHFLDVVWICVFTVVYLMGAM [P0ABJ3] | – | – | – | – | – | 13.9 h | – | – | – | – | – | –
MATFSLGKHPHVELCDLLKLEGWSESGAQAKIAIAEGQVKVDGAVETRKRCKIVAGQTVSFAGHSVQVVA [P0AAS7] | 3.39 ± 0.29 h | 2.72 ± 0.6 h | 2.3 ± 0.15 h | 2.4 ± 0.59 h | 4 ± 0.91 h | 4.46 ± 0.44 h | 3.68 ± 0.15 h | 1.97 ± 0.26 h | 3.576 ± 0.012 h | 4.09 ± 0.36 h | 4.18 ± 1.2 h | 2.71 ± 0.057 h
MATGKSCSRWFAPLAALLMVVSLSGCFDKEGDQRKAFIDFLQNTVMRSGERLPTLTADQKKQFGPFVSDYAILYGYSQQVNQAMDSGLRPVVDSVNAIRVPQDYVTQSGPLREMNGSLGVLAQQLQNAKLQADAAHSALKQSDDLKPVFDQAFTKVVTTPADALQPLIPAAQTFTQQLVMVGDYIAQQGTQVSFVANGIQFPTSQQASEYNKLIAPLPAQHQAFNQAWTTAVTATQ [P0ADK0] | – | 6.34 ± 0.47 h | 6.1 ± 0.9 h | 3.007 ± 0.025 h | 6.13 ± 0.24 h | 13.5 ± 1.5 h | 12.5 ± 0.65 h | 5.88 ± 0.16 h | 12.5 ± 1.1 h | 6.1 ± 0.091 h | 6.34 ± 0.28 h | 5.79 ± 0.17 h
MATIKDVARLAGVSVATVSRVINNSPKASEASRLAVHSAMESLSYHPNANARALAQQTTETVGLVVGDVSDPFFGAMVKAVEQVAYHTGNFLLIGNGYHNEQKERQAIEQLIRHRCAALVVHAKMIPDADLASLMKQMPGMVLINRILPGFENRCIALDDRYGAWLATRHLIQQGHTRIGYLCSNHSISDAEDRLQGYYDALAESGIAANDRLVTFGEPDESGGEQAMTELLGRGRNFTAVACYNDSMAAGAMGVLNDNGIDVPGEISLIGFDDVLVSRYVRPRLTTVRYPIVTMATQAAELALALADNRPLPEITNVFSPTLVRRHSVSTPSLEASHHATSD | – | 3.24 ± 0.35 h | 2.572 ± 0.0072 h | 2.29 ± 0.2 h | 4.35 ± 0.17 h | 7.06 ± 0.13 h | 3.77 ± 0.39 h | 3.26 ± 0.047 h | 6.28 ± 0.3 h | 5.91 ± 1.8 h | 2.72 ± 0.32 h | 2.8 ± 0.21 h
MATLTTTQTSPSLLGGVVIIGGTIIGAGMFSLPVVMSGAWFFWSMAALIFTWFCMLHSGLMILEANLNYRIGSSFDTITKDLLGKGWNVVNGISIAFVLYILTYAYISASGSILHHTFAEMSLNVPARAAGFGFALLVAFVVWLSTKAVSRMTAIVLGAKVITFFLTFGSLLGHVQPATLFNVAESNASYAPYLLMTLPFCLASFGYHGNVPSLMKYYGKDPKTIVKCLVYGTLMALALYTIWLLATMGNIPRPEFIGIAEKGGNIDVLVQALSGVLNSRSLDLLLVVFSNFAVASSFLGVTLGLFDYLADLFGFDDSAVGRLKTALLTFAPPVVGGLLFPNGFLYAIGYAGLAATIWAAIVPALLARASRKRFGSPKFRVWGGKPMIALILVFGVGNALVHILSSFNLLPVYQ [P0AAD2] | – | 0.779 h | 0.897 h | 1.97 ± 0.16 h | – | – | – | – | – | 2.1 h | – | –
MATRIEFHKHGGPEVLQAVEFTPADPAENEIQVENKAIGINFIDTYIRSGLYPPPSLPSGLGTEAAGIVSKVGSGVKHIKAGDRVVYAQSALGAYSSVHNIIADKAAILPAAISFEQAAASFLKGLTVYYLLRKTYEIKPDEQFLFHAAAGGVGLIACQWAKALGAKLIGTVGTAQKAQSALKAGAWQVINYREEDLVERLKEITGGKKVRVVYDSVGRDTWERSLDCLQRRGLMVSFGNSSGAVTGVNLGILNQKGSLYVTRPSLQGYITTREELTEASNELFSLIASGVIKVDVAEQQKYPLKDAQRAHEILESRATQGSSLLIP | 5.12 ± 0.23 h | 5.73 ± 0.15 h | 5.28 ± 0.14 h | 3.13 ± 0.2 h | 5.98 ± 0.24 h | 9.65 ± 0.38 h | 10.2 ± 0.47 h | 5.84 ± 0.14 h | 12.63 ± 0.043 h | 6.37 ± 0.98 h | 5.78 ± 0.78 h | 5.5 ± 0.41 h
MATVNKQAIAAAFGRAAAHYEQHADLQRQSADALLAMLPQRKYTHVLDAGCGPGWMSRHWRERHAQVTALDLSPPMLVQARQKDAADHYLAGDIESLPLATATFDLAWSNLAVQWCGNLSTALRELYRVVRPKGVVAFTTLVQGSLPELHQAWQAVDERPHANRFLPPDEIEQSLNGVHYQHHIQPITLWFDDALSAMRSLKGIGATHLHEGRDPRILTRSQLQRLQLAWPQQQGRYPLTYHLFLGVIARE | 2.85 ± 0.37 h | – | 0.556 h | – | – | – | 1.13 h | – | – | 4.79 ± 0.22 h | – | –
